Assay results from the DeepSol protein solubility set.

Assay: soluble on expression in E. coli; label from the status in PepcDB or PDB records

Sequence | soluble on expression in E. coli
MAHHHHHHMKVVEKQLSKKTLKVKKETEKNSTGFMEKKKINKKEKKIYKNNYNNDNIKEEEDILLNQDDFEKKKKKSLENKILLSKKLKEIKLQFKDDDTINNSKKNNWIERLDITSTEYYYLKKTELFGISESREKQLQNITHMNVIQALQKLQELNIKFNRPYDFLADMLKSDIHMEKIRQKILKEHEQAEVRENNKLKRINKKFLKKCGSQKIKSHKEALEKKQNLLKIDQLKKTNNLQNLNVQEFFIKHSKDHDYKAGKITAKKDMKHKKKNFNNKAKKDKGIKNKQIGKKTSINNKRKASSKNSRKSKKMKKKHKHRK | soluble
MDTAGIRLTPKEIVSKLNEYIVGQNDAKRKVAIALRNRYRRSLLDEESKQEISPKNILMIGPTGVGKTEIARRMAKVVGAPFIKVEATKFTEVGYVGRDVESMVRDLVDVSVRLVKAQKKSLVQDEATAKANEKLVKLLVPSMKKKASQTNNPLESLFGGAIPNFGQNNEDEEEPPTEEIKTKRSEIKRQLEEGKLEKEKVRIKVEQDPGALGMLGTNQNQQMQEMMNQLMPKKKVEREVAVETARKILADSYADELIDQESANQEALELAEQMGIIFIDEIDKVATNNHNSGQDVSRQGVQRDILPILEGSVIQTKYGTVNTEHMLFIGAGAFHVSKPSDLIPELQGRFPIRVELDSLSVEDFVRILTEPKLSLIKQYEALLQTEEVTVNFTDEAITRLAEIAYQVNQDTDNIGARRLHTILEKMLEDLSFEAPSMPNAVVDITPQYVDDKLKSISTNKDLSAFIL | not soluble
MDSKAIAERIKKLQAQQEHVRIGGKGTPRRKKKVIHKTAAADDKKLQSNLKKLSVTNIPGIEEVNMIKDDGTVIHFNNPKVQTSVPANTFSVTGSADNKQITEMLPGILNQLGPESLTHLKKLANNVTKLGPDGKGEDEDVPELVGDFDAASKNETKADEQ | soluble
MGLLDLIGRKRARDKPQNSYEGQDFSYLFGRTTSGENVDEFKTMQTTAVYACVRVLAEAVASLPIHIYERTENGKEKKLDHPLYFLLHDEPNPEMSSFIFRETIMSHLLIWGNAYVQIIRDKSGMVSLLLKQKASVLIRKLLLIIWQRMP | not soluble
MGSDKIHHHHHHMPTVLALETSCDESAAAVLRLNNGCLQVIASRIASQVEKHAQWGGVVPEVASRLHVEALPHLVEEVLQEAGQSMARFDAVAATVTPGLAGALMVGSVTGRSLAALHALPFFGIHHLEGHLASVRLAEHPPRPPYLVLLVSGGHTELIRVGAESEMVRLGRSHDDAAGEAFDKVGRLLGLAYPGGPAIQALAATGDSGRFSLPKGRVSKPGGGFHPYDFSFSGLKTAMLRLVQALSEADEDLPRADLAASFEQVVADVLVERSLLCANDQGLKTVVMVGGVAANRRLRELMSKRGQEQGIEVHTAPLRYCTDNAAMIGAAALQRLVSGVNGSSLELGVAARWPLDKTEVLYHSPPPF | not soluble
MQVDADLRPILGPQLVRLDPMRVKQLQDPIVYEAIDNLAKLSAHCLQLRTPLTTCEKLINSDSTLYLSWKYDEEEKVSRLMGFAKVGRKKLFLYDSQMQTYEGEILCLLDFYVHFSCQRQGVGQQILDYMFSQEHTEPYQLALDNPSVTLLGFMSQKYGLIKPVWQNTNFVVFEELFLALSAENGIEKPPPDGWRRPMTPRRLGTGMTDTRWLQHAVSGHQSKGNAMAAPVDADMTPQGALSNRAHQAKARKAHILSSKPLW | soluble
MKSLVKVSLAALALAFAVSAYAAEKELIVATDTAFVPFEFKQGDKYVGFDIDLWDAIAKKLDLKYTLKPMDFSGIIPALQTKNVDLALAGITITDERKKAVDFSDGYYNSGLLVMVKADNNDIKSEADLQGKVLAVKSGTGSVDYAKANIKTKDLRQFPNIDNAYLELGTGRADAVLHDTPNILYFIKTAGNGQFKAVGESIKAQQYGVAFPQGSDLREKVNAALKSLKEDGTYAEIYKKWFGVEPK | not soluble
MVRANGAVSLRELARVVQTSEVTVRRDVRALEAEGLLDRRHGGAVLPGGFTRESGFPQKSHLATAEKTAIADLAAGLVEEGEAIVVGAGTTTQELARRLARVPGLTVVTNSLLVAQALAHANRVEVVMTGGTLRGSNYALVGSGAEQSLQGLRVSKAFLSGSGLTAERGLSTSNMLSASVDRALVQAAAEVVVLADHSKLGTDTMFQTVPTDVITRLVTDESPGHDDRAATELQALADQGVQIAVAGASGGGTANGTGASGAPGGDSVGRQQRRDVPLPGPRRQVPGAAGAGLRSATALGEQGGGAERARVADMRRRLEHHHHHH | not soluble
MSLTEIGIVAVGGYNEMGRNMTAIIIGEDIVILDMGLRLDRVQIHEDVEIDKMHSLELIEMGAIPDDTIMKEINGTVRAIVCTHGHLDHIGAIPKLAHRYNAPILATPYTAAIIRQQIESERKFEVCNRVIPLQAGGTYQVTEDISIEFIRVQHSIIDCVLAAVHTPAGAVLYACDFKLDRTPTMGEAPDFDRFKSLGKEGVIAMITESTNAGRSGKTPSEQIAKDMVRDVLLGTEESGVGMIVTTFASHIARLKAIIEAAEEMGRIPVLMGRSMERYVGAARDIGYLDLPSNVEIYGTRKDVDRAFKRIMQEGKNKYLPIVTGHQGEPGSILVRVANGETPYTIDPGDRIIFSANVIPSPMTQANRYALETKLRMKGGRIYDDVHVSGHAYREDHWELLRMVNPEHVIPAHGDMEMHGHYIEMAEDAGYVLGDTVHLLRNGEVLYIEEEGHHHHHH | soluble
MGQVSAASTILINAEPTATLDALADYETVRPKILSPHYSEYQVLEGGKGRGTVAKWRLQATQSRVRDVQVNVDVAGHTVIEKDMNSSMVTNWTVAPAGPGSSVTVKTTWTGAGGVKGFFEKTFAPLGLKKIQAEVLSNLKTELEGDA | soluble
GSHMRLDKFIAQQLGVSRAIAGREIRGNRVTVDGEIVRNAAFKLLPEHDVAYDGNPLAQQHGPRYFMLNKPQGYVCSTDDPDHPTVLYFLDEPVAWKLHAAGRLDIDTTGLVLMTDDGQWSHRITSPRHHCEKTYLVTLESPVADDTAEQFAKGVQLHNEKDLTKPAVLEVITPTQVRLTISEGRYHQVKRMFAAVGNHVVELHRERIGGITLDADLAPGEYRPLTEEEIASVV | soluble
MSLTGNAQAATIADPSTLVVDTVGPVLTIGLNRPKKRNALNDGLMAALKDCLTDIPDQIRAVVIHGIGDHFSAGLDLSELRERDATEGLVHSQTWHRVFDKIQYCRVPVIAALKGAVIGGGLELACAAHIRVAEASAYYALPEGSRGIFVGGGGSVRLPRLIGVARMADMMLTGRVYSAAEGVVHGFSQYLIENGSAYDKALELGNRVAQNAPLTNFAVLQALPMIAEANPQTGLLMESLMATVAQSDQEAKTRIRAFLDHKTAKVREGHHHHHH | soluble
ASELNIYSARHYNADFEIIKKFEEKTGIKVNHTQAKASELIKRLSLEGSNSPADIFITADISNLTEAKNLGLLSPVSSKYLEEFIPAHLRDKDKEWFAITKRARIIAYNKNTNIDISKMKNYEDLAKAEFKGEIVMRSATAPYSKTLLASIIANDGNKEAKAWAKGVLENLATNPKGGDRDQARQVFAGEAKFAVMNTYYIGLLKNSKNPKDVEVGNSLGIIFPNQDNRGTHINISGIAMTKSSKNQDAAKKFMEFMLSPEIQKILTDSNYEFPIRNDVELSQTVKDFGTFKEDQIPVSKIAENIKEAVKIYDEVGFRIEGR | soluble
